Assays:
[1] = molecular target: low density lipoprotein receptor-related protein (LRP), purified and immobilized (UniProt Q07954); experiment: SPR, LRP immobilized (8.3 fmol/mm^2), analyte 100 nM, corrected for nonspecific binding
[2] = molecular target: LRP exposed on the surface of mouse fibroblast (C127) cells (mouse (mouse fibroblast cells)) (UniProt Q91ZX7); experiment: cell-based or functional assay
Chain of LRP exposed on the surface of mouse fibroblast (C127) cells (mouse (mouse fibroblast cells)) (Q91ZX7 20-4545): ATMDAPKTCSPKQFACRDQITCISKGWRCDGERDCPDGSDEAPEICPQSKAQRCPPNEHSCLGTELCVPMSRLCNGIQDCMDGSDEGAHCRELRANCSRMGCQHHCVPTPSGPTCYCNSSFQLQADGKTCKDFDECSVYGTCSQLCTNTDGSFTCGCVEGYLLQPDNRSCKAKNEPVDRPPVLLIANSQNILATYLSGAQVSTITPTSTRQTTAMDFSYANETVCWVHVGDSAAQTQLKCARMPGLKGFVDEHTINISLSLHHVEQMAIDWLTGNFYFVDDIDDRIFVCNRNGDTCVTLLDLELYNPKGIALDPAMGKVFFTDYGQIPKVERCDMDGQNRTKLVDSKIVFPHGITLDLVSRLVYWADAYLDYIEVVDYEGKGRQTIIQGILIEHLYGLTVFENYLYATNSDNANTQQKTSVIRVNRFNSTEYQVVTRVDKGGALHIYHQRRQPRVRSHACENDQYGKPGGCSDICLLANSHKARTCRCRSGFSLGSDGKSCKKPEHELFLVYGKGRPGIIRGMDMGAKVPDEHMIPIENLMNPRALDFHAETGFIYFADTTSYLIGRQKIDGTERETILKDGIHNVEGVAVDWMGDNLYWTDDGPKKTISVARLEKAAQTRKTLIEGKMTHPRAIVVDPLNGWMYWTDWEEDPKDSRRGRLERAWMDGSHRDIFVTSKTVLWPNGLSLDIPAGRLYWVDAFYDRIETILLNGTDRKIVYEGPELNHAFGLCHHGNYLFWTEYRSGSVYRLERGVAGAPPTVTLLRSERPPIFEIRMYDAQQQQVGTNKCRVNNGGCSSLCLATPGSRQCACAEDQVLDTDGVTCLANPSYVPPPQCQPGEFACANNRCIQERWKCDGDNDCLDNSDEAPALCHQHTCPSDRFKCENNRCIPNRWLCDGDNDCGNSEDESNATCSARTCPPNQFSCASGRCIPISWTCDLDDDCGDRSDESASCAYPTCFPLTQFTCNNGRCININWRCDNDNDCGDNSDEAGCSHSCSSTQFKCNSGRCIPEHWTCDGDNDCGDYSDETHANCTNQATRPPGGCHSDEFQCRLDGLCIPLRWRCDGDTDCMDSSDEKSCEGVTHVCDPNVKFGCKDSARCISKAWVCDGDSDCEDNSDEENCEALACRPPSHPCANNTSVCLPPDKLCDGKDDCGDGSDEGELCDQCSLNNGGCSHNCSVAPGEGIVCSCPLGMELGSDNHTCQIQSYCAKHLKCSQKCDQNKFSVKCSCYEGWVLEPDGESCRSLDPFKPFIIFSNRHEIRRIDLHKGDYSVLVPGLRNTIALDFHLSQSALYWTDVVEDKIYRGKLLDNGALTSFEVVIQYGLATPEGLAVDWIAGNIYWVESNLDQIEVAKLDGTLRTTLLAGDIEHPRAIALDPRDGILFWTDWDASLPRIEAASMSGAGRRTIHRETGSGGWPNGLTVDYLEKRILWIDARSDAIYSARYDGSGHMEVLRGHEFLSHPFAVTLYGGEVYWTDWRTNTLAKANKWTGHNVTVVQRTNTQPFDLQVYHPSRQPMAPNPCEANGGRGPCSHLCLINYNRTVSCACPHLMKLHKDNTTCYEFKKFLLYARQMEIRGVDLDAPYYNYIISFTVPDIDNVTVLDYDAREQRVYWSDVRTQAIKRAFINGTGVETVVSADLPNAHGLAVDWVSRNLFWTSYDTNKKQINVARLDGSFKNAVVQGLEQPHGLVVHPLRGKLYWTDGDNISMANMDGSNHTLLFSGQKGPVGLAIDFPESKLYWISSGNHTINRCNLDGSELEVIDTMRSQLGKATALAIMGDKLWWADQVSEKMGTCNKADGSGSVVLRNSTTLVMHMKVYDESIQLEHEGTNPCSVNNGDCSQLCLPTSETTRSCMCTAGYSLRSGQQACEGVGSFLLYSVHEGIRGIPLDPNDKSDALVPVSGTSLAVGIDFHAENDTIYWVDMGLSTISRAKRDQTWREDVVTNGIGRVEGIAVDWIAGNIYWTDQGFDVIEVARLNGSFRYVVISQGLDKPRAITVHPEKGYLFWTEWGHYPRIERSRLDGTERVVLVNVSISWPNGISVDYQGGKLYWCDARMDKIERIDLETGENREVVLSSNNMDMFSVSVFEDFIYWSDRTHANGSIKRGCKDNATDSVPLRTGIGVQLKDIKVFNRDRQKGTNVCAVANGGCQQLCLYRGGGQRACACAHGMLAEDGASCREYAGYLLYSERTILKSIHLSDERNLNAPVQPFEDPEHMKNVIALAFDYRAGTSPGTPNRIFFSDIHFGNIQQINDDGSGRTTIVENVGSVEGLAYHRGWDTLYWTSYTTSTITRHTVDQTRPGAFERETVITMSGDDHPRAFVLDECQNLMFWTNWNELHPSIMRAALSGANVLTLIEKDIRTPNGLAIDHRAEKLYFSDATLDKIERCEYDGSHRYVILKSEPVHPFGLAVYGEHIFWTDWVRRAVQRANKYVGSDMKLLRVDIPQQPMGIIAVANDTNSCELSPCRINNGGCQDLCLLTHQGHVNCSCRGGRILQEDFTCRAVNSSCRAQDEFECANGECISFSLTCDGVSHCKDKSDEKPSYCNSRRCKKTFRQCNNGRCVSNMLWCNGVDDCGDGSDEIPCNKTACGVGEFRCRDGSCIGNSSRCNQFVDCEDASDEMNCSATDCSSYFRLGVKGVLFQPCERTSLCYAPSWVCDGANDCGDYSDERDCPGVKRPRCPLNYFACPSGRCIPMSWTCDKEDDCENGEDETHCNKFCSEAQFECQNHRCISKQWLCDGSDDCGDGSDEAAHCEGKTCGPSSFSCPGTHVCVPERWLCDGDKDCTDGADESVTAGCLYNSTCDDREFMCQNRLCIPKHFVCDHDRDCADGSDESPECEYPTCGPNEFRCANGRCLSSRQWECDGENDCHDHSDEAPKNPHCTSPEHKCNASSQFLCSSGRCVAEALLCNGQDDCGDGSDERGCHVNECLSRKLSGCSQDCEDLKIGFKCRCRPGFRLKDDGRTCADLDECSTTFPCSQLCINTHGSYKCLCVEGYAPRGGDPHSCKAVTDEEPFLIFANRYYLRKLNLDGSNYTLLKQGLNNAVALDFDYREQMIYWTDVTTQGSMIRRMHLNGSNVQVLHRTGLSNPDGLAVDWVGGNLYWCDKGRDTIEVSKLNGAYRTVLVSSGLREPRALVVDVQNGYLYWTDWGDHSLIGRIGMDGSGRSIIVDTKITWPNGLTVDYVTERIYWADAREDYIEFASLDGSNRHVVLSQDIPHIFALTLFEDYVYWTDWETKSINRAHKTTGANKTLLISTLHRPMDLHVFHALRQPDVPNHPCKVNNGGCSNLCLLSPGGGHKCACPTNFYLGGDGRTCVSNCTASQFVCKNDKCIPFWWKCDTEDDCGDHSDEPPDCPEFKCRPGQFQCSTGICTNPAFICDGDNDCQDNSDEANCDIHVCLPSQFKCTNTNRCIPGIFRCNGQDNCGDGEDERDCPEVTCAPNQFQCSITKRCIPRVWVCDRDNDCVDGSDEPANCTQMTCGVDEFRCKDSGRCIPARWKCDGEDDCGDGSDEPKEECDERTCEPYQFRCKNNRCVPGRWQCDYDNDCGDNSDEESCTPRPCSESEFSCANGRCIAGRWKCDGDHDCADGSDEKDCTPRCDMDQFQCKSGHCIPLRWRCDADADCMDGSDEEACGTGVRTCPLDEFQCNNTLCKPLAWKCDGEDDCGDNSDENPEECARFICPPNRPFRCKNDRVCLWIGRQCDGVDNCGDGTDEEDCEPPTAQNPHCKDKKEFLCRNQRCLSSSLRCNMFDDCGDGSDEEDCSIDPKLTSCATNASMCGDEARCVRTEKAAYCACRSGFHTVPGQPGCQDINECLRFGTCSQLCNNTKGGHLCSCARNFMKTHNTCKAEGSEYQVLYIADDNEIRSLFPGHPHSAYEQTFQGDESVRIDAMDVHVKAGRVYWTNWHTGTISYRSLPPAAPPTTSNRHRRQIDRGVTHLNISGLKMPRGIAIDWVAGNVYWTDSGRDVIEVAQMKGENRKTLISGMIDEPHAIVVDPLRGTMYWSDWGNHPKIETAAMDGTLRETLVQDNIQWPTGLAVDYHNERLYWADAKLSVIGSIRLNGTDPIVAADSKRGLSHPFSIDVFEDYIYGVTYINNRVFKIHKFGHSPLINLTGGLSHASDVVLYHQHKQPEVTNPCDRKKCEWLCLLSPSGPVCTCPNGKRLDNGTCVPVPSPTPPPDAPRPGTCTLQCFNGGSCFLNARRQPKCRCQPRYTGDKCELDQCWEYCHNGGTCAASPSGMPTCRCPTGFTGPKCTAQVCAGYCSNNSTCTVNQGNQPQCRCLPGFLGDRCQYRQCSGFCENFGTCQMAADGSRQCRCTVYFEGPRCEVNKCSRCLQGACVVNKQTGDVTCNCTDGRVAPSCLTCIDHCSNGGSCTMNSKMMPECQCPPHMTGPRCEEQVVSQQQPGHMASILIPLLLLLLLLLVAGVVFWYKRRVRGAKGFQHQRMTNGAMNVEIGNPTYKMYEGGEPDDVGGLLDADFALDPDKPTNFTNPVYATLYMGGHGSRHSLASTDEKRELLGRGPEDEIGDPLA

| Binding (resonance units) (resonance units) [1] | Ratio +RAP/-RAP of Factor VIII expression (U/L) in medium of C127 cells, 2 h [2] | Ratio +RAP/-RAP of Factor VIII expression (U/L) in medium of C127 cells, 3 h [2] | Substance |
| --- | --- | --- | --- |
| 262 |  |  | Factor VIII, P00451 20-1667; P00451 1668-2351 |
| 0 |  |  | heavy chain of Factor VIII (from UniProt P00451 20-1667) |
|  | 3.2 | 2.3 | normal Factor VIII (produced by stably transfected mouse fibroblast C127 cells) (from UniProt P00451 20-2351) |
| 446 |  |  | thrombin-activated Factor VIII (from UniProt P00451 20-391; P00451 392-759; P00451 1709-2351) |
